In this experiment the target is hRAGE (human, UniProt Q15109 23-342, limits assumed). In words: competition ELISA, hRAGE-S100B interaction.
Sequence of hRAGE (Q15109 23-342 limits assumed): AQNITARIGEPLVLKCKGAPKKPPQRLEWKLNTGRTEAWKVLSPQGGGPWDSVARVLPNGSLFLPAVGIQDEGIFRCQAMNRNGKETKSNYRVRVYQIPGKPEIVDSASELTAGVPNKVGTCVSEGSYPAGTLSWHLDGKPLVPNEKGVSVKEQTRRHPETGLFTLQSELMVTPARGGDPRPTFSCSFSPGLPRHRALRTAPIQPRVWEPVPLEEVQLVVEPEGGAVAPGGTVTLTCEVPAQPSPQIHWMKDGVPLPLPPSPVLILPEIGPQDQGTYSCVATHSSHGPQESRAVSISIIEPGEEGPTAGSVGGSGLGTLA

B1: 158 RAGE-1 (antibody, V domains shown)
VH: QIQLVQSGPELKKPGETVKISCKASGYTFTDYSMHWVKQAPGKGLKWMGWINTETGEPTYADDFKGRFAFSLETSASTAYLLINNLKTEDTATYFCARDYLYYYAMDYWGQGTSVTVSS
VL: DVVLTQTPLSLPVNIGDQASISCKSTKSLLNSDGFTYLDWYLQKPGQSPQLLIYLVSNRFSGVPDRFSGSGSGTDFTLKISRVEAEDLGVYYCFQSNYLPLTFGGGTKVEIK
notes: Anti-RAGE monoclonal antibody (hybridoma; captured by anti-mouse Fc in Biacore); also called LP08105
By IC50 is commonly meant the point on the concentration scale where inhibition reaches its midpoint. A low value points to inhibition by little substance. Take B1: the IC50 is 0.72 nM.

Source of the values: patent publication EP2308896A1 (Sanofi-Aventis, dated 2011).
